Literature values in article PMC11695321.

Tests used:
Test in all cases: SPR
IKKα (Homo sapiens) = IKKα (Homo sapiens) (UniProt O15111)
IKKβ (Homo sapiens) = IKKβ (Homo sapiens) (UniProt O14920)
NF-κB p50 (Homo sapiens) = NF-κB p50 (Homo sapiens) (UniProt P19838)
Sequence of UniProt P19838 (P19838 1-433): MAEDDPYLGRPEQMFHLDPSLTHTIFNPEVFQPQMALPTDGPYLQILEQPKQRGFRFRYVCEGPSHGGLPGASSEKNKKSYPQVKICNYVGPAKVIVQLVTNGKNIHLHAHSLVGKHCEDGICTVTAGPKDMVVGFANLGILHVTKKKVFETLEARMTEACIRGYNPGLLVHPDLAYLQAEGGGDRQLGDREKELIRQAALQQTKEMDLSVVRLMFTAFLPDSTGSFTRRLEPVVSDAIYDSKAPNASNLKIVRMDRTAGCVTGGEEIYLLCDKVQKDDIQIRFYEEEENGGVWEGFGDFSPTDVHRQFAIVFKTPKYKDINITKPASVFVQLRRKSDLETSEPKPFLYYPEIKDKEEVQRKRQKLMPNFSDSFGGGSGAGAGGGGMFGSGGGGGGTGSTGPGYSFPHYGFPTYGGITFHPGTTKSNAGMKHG

Sequence of UniProt O14920 (O14920 whole entry): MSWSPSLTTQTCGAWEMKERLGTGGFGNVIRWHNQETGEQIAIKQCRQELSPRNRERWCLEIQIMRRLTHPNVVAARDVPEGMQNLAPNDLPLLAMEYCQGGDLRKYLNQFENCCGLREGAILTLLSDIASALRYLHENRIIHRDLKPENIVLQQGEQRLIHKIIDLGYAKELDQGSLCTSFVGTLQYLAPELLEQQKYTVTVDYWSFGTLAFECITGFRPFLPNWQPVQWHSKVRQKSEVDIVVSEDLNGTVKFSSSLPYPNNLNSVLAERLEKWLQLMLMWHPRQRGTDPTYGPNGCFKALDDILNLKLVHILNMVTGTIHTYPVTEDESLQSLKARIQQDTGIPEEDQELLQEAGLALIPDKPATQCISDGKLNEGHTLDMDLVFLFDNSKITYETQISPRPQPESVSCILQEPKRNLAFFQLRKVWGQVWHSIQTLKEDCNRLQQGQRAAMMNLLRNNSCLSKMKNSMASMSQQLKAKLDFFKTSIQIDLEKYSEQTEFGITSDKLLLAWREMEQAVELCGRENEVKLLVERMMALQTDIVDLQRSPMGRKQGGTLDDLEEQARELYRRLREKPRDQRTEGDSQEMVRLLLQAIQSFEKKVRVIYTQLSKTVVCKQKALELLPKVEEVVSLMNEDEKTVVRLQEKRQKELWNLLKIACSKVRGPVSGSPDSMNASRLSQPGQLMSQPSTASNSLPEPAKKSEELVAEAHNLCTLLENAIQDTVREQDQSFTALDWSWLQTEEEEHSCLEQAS
Sequence of UniProt O15111 (O15111 whole entry): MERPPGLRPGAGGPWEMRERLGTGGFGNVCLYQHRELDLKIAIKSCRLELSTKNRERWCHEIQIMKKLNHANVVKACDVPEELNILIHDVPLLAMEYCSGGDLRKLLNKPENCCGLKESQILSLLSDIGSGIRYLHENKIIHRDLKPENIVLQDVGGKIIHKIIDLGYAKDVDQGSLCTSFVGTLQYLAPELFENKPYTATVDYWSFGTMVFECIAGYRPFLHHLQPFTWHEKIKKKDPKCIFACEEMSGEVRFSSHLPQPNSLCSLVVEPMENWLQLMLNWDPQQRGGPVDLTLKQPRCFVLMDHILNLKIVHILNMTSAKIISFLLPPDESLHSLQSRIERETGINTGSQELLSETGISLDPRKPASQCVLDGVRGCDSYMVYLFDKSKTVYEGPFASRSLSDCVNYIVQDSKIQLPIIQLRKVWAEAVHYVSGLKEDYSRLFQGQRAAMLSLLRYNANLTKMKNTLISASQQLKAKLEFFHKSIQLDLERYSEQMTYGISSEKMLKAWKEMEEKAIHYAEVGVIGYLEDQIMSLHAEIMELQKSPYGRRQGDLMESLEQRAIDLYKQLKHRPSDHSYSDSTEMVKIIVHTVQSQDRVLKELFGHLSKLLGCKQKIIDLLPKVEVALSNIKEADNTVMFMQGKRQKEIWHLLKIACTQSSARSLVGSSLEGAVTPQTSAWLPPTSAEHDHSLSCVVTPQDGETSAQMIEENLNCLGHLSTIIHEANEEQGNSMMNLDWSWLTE

Substance: melittin (from UniProt P01501)
- Kd (IKKα (Homo sapiens)): 4600 nM
- Kd (IKKβ (Homo sapiens)): 1.34 nM
- Kd (NF-κB p50 (Homo sapiens)): 1.01 nM
